The supplement of paper PMC5998384

Experiments:
HeLa Kyoto [1] = experiment: solubility in G1/S (NP-40 vs SDS abundance) (log2 ratio); higher = more soluble; conditions: cell cycle stage: G1/S
HeLa Kyoto [2] = experiment: melting temperature (median over replicates), in situ; higher = more thermally stable
HeLa Kyoto [3] = experiment: solubility change mitosis vs G1/S (difference of NP-40 vs SDS log2 ratios) (log2 ratio difference); higher = more soluble in mitosis
HeLa Kyoto [4] = experiment: thermal stability score vs G1/S (z-score of summed log2 fold changes over temperatures); higher = more thermally stable than in G1/S
[5] = cell cycle stage: early G1 (4.5 h after nocodazole release)
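Throughout, for melting temperature (median over replicates), in situ: HeLa Kyoto cells synchronized by double thymidine or nocodazole block, proteins quantified by TMT10plex mass spectrometry, three independent biological replicates.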
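Throughout, for solubility change mitosis vs G1/S (difference of NP-40 vs SDS log2 ratios): synchronized HeLa Kyoto cells (double thymidine block for G1/S, nocodazole release for mitosis), protein amounts in NP-40 versus SDS lysates quantified by mass spectrometry, three biological replicates.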
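Throughout, for solubility in G1/S (NP-40 vs SDS abundance): HeLa Kyoto cells arrested at G1/S by double thymidine block, proteins quantified by TMT10plex mass spectrometry in mild NP-40 versus SDS extracts, three biological replicates.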
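Throughout, for thermal stability score vs G1/S (z-score of summed log2 fold changes over temperatures): synchronized HeLa Kyoto cells, proteins quantified by TMT10plex mass spectrometry, three biological replicates, mitosis taken 0.5 h after nocodazole release, G1/S directly after double thymidine block.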

Chain of PHF23 (chain, as listed by the source): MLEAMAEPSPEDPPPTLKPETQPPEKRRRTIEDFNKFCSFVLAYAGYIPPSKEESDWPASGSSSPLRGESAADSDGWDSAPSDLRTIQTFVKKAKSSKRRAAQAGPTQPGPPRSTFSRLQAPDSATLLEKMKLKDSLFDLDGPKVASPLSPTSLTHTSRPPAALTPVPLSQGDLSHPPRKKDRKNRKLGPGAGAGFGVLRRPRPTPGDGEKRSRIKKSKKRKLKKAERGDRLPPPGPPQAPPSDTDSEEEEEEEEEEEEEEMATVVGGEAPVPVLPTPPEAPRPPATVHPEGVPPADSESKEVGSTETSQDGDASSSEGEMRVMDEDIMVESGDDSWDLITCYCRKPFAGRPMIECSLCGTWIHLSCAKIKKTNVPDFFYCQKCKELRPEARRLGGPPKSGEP
Chain of YBX3 (chain, as listed by the source): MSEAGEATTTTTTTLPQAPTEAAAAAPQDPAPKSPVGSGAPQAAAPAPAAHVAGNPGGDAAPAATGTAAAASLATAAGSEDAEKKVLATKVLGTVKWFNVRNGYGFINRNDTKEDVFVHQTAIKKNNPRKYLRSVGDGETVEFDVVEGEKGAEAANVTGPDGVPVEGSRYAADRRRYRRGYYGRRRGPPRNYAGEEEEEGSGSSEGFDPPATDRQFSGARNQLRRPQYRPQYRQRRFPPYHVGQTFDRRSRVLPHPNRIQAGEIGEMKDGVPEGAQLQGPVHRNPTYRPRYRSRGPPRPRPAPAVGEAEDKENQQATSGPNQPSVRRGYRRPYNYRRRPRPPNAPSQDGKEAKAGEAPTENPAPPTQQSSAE
Chain of STK38 (chain, as listed by the source): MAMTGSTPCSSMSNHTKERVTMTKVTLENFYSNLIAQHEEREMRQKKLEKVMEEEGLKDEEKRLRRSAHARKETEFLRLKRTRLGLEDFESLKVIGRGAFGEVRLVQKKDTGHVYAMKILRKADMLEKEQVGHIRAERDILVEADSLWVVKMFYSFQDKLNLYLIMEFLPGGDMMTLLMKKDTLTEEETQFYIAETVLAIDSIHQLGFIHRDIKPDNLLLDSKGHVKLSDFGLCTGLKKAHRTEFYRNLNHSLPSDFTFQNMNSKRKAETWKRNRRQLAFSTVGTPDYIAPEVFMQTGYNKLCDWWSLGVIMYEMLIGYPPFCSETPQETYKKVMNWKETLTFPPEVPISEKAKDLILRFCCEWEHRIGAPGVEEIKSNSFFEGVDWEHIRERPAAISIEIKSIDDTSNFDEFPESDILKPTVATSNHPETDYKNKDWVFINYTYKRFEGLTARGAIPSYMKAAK
Chain of SLC27A4 (chain, as listed by the source): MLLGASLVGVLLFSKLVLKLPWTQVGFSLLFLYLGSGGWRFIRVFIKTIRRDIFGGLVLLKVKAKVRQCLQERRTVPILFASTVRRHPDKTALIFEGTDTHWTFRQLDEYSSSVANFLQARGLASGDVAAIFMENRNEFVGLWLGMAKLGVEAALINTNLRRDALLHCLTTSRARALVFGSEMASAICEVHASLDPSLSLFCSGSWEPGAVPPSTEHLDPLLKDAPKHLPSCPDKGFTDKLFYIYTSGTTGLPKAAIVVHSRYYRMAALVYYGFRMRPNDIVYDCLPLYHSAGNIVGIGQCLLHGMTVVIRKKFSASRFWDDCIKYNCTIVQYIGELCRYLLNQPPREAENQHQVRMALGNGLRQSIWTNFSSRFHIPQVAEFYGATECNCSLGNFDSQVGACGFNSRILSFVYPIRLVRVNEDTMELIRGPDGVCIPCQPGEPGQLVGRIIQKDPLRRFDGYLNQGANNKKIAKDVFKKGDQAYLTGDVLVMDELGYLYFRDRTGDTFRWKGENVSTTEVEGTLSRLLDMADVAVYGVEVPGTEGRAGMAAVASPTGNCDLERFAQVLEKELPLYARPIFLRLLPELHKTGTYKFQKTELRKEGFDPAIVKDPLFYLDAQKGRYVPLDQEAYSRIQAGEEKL
Chain of RHOC (chain, as listed by the source): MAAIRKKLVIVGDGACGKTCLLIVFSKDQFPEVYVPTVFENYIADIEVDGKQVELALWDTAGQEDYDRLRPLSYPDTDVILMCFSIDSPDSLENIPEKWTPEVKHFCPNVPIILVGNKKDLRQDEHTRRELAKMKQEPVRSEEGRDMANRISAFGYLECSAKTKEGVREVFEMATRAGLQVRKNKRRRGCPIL
Chain of TROVE2 (chain, as listed by the source): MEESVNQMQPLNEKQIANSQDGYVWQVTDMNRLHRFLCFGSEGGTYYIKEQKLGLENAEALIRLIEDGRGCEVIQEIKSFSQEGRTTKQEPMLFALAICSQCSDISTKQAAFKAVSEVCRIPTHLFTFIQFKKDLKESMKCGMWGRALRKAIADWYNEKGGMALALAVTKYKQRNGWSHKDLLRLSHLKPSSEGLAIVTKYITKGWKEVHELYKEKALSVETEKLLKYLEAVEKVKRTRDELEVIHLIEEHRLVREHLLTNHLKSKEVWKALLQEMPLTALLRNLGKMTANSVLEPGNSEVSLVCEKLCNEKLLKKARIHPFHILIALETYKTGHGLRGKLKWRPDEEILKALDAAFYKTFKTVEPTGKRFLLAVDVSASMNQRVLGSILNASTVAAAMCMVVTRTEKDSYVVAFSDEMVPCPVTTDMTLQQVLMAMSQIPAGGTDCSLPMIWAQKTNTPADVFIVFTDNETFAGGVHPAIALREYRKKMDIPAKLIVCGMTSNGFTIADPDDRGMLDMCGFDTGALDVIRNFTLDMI
Chain of TANC1 (chain, as listed by the source): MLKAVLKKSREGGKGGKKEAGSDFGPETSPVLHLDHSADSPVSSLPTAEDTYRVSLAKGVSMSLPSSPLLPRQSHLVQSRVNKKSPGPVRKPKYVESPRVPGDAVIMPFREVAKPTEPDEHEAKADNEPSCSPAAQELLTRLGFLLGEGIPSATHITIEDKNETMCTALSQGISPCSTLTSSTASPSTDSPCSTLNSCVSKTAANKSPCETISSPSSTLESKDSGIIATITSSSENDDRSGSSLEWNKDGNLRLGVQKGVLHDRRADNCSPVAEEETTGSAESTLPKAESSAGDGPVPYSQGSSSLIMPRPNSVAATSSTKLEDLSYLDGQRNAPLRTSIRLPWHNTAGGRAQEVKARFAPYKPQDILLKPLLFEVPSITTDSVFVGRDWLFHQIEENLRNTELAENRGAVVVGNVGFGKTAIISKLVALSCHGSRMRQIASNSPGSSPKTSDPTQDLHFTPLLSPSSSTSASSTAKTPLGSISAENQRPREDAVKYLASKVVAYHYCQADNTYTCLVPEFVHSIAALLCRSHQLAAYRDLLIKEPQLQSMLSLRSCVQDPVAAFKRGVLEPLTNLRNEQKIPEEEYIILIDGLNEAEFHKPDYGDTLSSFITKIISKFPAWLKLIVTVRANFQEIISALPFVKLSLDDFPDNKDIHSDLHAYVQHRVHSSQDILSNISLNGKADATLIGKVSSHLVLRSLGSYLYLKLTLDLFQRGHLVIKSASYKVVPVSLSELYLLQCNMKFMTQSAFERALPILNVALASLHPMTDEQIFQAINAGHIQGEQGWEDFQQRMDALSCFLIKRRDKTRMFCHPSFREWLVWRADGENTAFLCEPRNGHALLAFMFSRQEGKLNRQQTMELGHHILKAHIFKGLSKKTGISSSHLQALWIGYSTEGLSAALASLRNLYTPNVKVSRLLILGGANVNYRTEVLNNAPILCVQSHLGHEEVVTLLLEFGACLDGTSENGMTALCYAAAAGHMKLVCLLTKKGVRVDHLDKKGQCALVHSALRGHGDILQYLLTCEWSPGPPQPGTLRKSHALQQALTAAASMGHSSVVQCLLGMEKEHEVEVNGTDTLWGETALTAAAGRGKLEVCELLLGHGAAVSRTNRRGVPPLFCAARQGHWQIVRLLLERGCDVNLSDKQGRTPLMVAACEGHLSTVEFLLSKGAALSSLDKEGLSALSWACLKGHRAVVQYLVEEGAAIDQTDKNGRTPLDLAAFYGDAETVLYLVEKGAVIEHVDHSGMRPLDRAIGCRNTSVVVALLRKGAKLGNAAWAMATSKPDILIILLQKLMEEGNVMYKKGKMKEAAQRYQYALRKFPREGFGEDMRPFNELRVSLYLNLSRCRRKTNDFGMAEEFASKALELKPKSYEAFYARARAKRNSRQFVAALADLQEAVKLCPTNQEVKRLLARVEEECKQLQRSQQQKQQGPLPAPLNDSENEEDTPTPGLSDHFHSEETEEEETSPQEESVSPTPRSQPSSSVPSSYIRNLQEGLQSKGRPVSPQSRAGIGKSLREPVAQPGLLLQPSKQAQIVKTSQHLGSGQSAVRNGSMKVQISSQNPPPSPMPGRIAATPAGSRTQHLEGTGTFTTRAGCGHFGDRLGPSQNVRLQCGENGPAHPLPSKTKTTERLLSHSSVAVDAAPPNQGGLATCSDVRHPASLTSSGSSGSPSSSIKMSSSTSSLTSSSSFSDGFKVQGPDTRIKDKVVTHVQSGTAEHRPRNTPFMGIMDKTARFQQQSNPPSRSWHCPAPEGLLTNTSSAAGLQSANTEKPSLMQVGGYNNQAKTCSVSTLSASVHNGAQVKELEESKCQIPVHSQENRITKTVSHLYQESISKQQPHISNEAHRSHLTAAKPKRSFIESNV
Chain of PDCD10 (chain, as listed by the source): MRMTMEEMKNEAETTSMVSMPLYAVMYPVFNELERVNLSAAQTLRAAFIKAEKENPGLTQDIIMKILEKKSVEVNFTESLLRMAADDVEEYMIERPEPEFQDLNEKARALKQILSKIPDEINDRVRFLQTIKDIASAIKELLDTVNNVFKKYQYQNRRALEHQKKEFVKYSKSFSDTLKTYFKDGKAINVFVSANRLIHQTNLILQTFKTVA
Chain of PSMA6 (chain, as listed by the source): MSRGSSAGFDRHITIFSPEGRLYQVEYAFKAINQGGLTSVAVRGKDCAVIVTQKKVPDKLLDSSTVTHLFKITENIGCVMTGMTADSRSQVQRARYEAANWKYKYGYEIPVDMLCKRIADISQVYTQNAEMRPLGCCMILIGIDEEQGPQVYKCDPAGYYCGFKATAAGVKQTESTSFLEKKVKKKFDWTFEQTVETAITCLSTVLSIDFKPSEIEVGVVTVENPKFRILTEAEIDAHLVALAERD

| Substance | solubility in G1/S (log2) (HeLa Kyoto [1]) | melting temperature (HeLa Kyoto [2]; cell cycle stage: G1/S) [°C] | melting temperature (HeLa Kyoto [2]; cell cycle stage: mitosis) [°C] | solubility change mitosis (log2) (HeLa Kyoto [3]) | thermal stability score (HeLa Kyoto [4]; [5]) | thermal stability score (HeLa Kyoto [4]; cell cycle stage: mitosis) |
| --- | --- | --- | --- | --- | --- | --- |
| MYYKFSGFTQKLAGAWASEAYSPQGLKPVVSTEAPPIIFATPTKLTSDSTVYDYAGKNKVPELQKFFQKADGVPVYLKRGLPDQMLYRTTMALTVGGTIYCLIALYMASQPKNK [COX7A2L] | -0.0362 | 55.7 | 52.3 | 0.107 | -2.74 | -1.52 |
| NEK7 | 0.62 | 49.1 | 49.4 | -0.165 | 1.38 | 1.14 |
| NFIC | 0.109 | 56.8 | 57.3 | 0.0157 | -1.32 | 2.11 |
| NIFK | -1.88 | 51.7 | 52.8 | 0.784 | 4.37 | 4.42 |
| NOTCH2 | -0.0358 | 50.1 | 51 | -0.171 | -1.09 | -2.98 |
| NUMA1 | -0.199 | 47.7 | 49.7 | 0.493 | 5.09 | 8.74 |
| OXSM | -0.149 | 58.8 | 61.2 | -0.0154 | 0.339 | -0.889 |
| PDCD10 | 0.326 | 49.2 | 50.7 | -0.0258 | 1.11 | 1.24 |
| PHF3 | -0.532 | 53.2 | 53.7 | 0.194 | 0.714 | 2.75 |
| PHF5A | -0.51 | 53.8 | 52.2 | 0.276 | -3.94 | -5.73 |
| PHF23 | 0.107 | 51.1 | 53.2 | 0.0233 | -0.742 | 0.2 |
| PIK3C2A | -0.334 | 49.3 | 48.6 | -0.063 | -0.0214 | 0.282 |
| PPCS | 0.249 | 52.1 | 52.9 | -0.173 | -0.584 | -0.132 |
| PPIH | 0.00262 | 49.9 | 49.5 | 0.0864 | 1.19 | 0.86 |
| PSMA6 | -0.0362 | 62.9 | 60.9 | 0.0779 | -1.86 | -3.6 |
| PTBP1 | 0.378 | 49.1 | 48.6 | 0.0339 | 5.29 | 9.17 |
| PUDP | 0.454 | 54.5 | 55.5 | -0.0216 | 1.26 | 0.384 |
| RABGAP1 | -0.122 | 50.9 | 50.5 | -0.111 | -0.113 | -0.37 |
| RALGAPA1 | -0.0986 | 50.2 | 50.8 | -0.16 | -0.328 | -0.518 |

| Substance | solubility in G1/S (log2) (HeLa Kyoto [1]) | melting temperature (HeLa Kyoto [2]; cell cycle stage: G1/S) [°C] | melting temperature (HeLa Kyoto [2]; cell cycle stage: mitosis) [°C] | solubility change mitosis (log2) (HeLa Kyoto [3]) | thermal stability score (HeLa Kyoto [4]; [5]) | thermal stability score (HeLa Kyoto [4]; cell cycle stage: mitosis) |
| --- | --- | --- | --- | --- | --- | --- |
| RAP1GAP2 | 0.164 | 50.3 | 50.3 | 0.327 | 0.21 | 0.699 |
| RHOC | 0.0468 | 53.8 | 54.8 | -0.013 | -0.123 | -1.75 |
| RREB1 | -0.318 | 49.4 | 50.8 | 0.214 | 0.176 | 1.2 |
| RSBN1L | -0.468 | 54.7 | 53.4 | 0.0823 | -0.891 | -3.56 |
| RSRC2 | -0.575 | 51.8 | 52.2 | 0.135 | 2.6 | 0.263 |
| SAFB2 | -0.828 | 50.3 | 51.4 | 0.345 | 0.782 | 0.916 |
| SEC16A | -0.0963 | 49.4 | 49.7 | -0.00335 | 0.0465 | 2.03 |
| SLC27A4 | -0.211 | 50.3 | 50.9 | -0.138 | 0.342 | 0.581 |
| SLC35E1 | -0.14 | 51.3 | 52 | -0.172 | 0.109 | 0.648 |
| SLTM | -1.17 | 51.1 | 51.4 | 0.595 | 0.205 | 2.43 |
| STK38 | -0.0452 | 48.3 | 49.1 | -0.159 | 0.464 | 1.32 |
| SUMF2 | 0.289 | 52.9 | 54.7 | 0.00354 | 4.15 | 3.23 |
| TANC1 | -0.0445 | 50.1 | 50.7 | -0.166 | -0.0485 | 0.875 |
| TARBP1 | -0.262 | 52.3 | 51.6 | -0.207 | 0.335 | -0.385 |
| TENM3 | 0.0433 | 54.9 | 55.6 | -0.0942 | -2.98 | -2.29 |
| THADA | -0.395 | 51.6 | 50.2 | -0.159 | -0.0368 | -1.12 |
| TIMM50 | 0.393 | 51.4 | 50.8 | -0.0286 | -0.406 | -0.388 |
| TMED2 | 0.169 | 55.5 | 55.3 | -0.171 | 1.23 | 2.29 |
| TMEM55B | 0.135 | 53.4 | 53.5 | -0.162 | -1.51 | -1.58 |

| Substance | solubility in G1/S (log2) (HeLa Kyoto [1]) | melting temperature (HeLa Kyoto [2]; cell cycle stage: G1/S) [°C] | melting temperature (HeLa Kyoto [2]; cell cycle stage: mitosis) [°C] | solubility change mitosis (log2) (HeLa Kyoto [3]) | thermal stability score (HeLa Kyoto [4]; [5]) | thermal stability score (HeLa Kyoto [4]; cell cycle stage: mitosis) |
| --- | --- | --- | --- | --- | --- | --- |
| TOP2A | -2.15 | 51 | 52.8 | -0.207 | -0.453 | 3.49 |
| TRIO | -0.25 | 48.9 | 49.5 | -0.0514 | -0.165 | 0.739 |
| TRIP11 | 0.34 | 49.1 | 49 | -0.135 | 0.295 | 1.48 |
| TROVE2 | -0.149 | 57.5 | 54.7 | -0.0914 | -4.29 | -4.23 |
| TXNDC5 | 0.348 | 55.3 | 57.3 | -0.0668 | 3.49 | 3.79 |
| TXNDC12 | 0.365 | 53.5 | 54.2 | 0.232 | -0.513 | -0.814 |
| UGGT1 | -0.0908 | 54.2 | 55 | -0.156 | 3.04 | 4.09 |
| USP16 | -0.321 | 50.4 | 49.5 | 0.122 | -0.114 | 0.382 |
| WNK1 | 0.0681 | 51.9 | 52.2 | -0.164 | 1.74 | 3.55 |
| XPNPEP3 | 0.275 | 53.4 | 53.3 | -0.146 | -0.645 | -2.12 |
| XPO4 | -0.0631 | 52.4 | 52 | -0.113 | 0.898 | 0.432 |
| YBX3 | 0.366 | 54 | 53.8 | -0.0607 | -3.49 | -8.21 |
| ZCCHC6 | -0.226 | 49.9 | 49.3 | 0.0648 | 1.03 | 2.02 |
| ZFYVE16 | -0.0282 | 53.2 | 52.7 | -0.171 | -2.53 | -1.48 |
| ZNF629 | -0.355 | 53.4 | 52.9 | -0.0563 | 0.477 | -1.32 |
| ZNF787 | -0.0171 | 51.9 | 54.5 | 0.398 | -0.71 | -1.22 |
| ZNFX1 | -0.239 | 50.3 | 49.5 | -0.0887 | -0.325 | 0.64 |
| ZWILCH | 0.0446 | 50.9 | 50.2 | -0.229 | 0.346 | 0.376 |
